Assay results: publication PMC7928716 (Science Signaling, 2021)
Read-outs that look alike come from different tables or passages of the source. Square brackets hold non-standard residues; d marks the D form. * marks the point of attachment. FITC = O=C1OC2(c3ccc(O)cc3Oc3cc(O)ccc32)c2ccc(NC(=S)*)cc21; pY = N[C@@H](Cc1ccc(OP(=O)(O)O)cc1)C(=O)O; pS = N[C@@H](COP(=O)(O)O)C(=O)O

B1: FITC-labeled ACE2(787–798) peptide (peptide)
peptide: {FITC}-SKGENNPGFQNT-NH2
B5: FITC-labeled C-terminal peptide of ACE2(796–805) (peptide)
peptide: {FITC}-QNTDDVQTSF-OH

Key:
Assay in all cases: fluorescence polarisation
TLN2 PTB (309–401) = TLN2 PTB (309–401) (human, UniProt Q9Y4G6 309-401)
FRS2 PTB (8–136) = target: T1, FRS2 PTB (8–136) (human, UniProt Q8WU20 8-136)
T1 sequence: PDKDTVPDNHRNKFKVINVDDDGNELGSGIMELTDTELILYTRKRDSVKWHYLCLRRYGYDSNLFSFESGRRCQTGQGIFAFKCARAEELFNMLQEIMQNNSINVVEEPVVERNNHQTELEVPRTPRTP

DOK1 PTB (151–256) = target: T2, DOK1 PTB (151–256) (human, UniProt Q99704 151-256)
T2 sequence: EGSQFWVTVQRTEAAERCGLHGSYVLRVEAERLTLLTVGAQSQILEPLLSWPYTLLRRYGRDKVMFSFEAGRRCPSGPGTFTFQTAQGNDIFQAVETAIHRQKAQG

IRS1 PTB (157–267) = target: T3, IRS1 PTB (157–267) (human, UniProt P35568 157-267)
T3 sequence: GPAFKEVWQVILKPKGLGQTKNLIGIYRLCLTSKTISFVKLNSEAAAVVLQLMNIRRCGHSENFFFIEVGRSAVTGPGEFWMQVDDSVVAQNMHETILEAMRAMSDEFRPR

AP2 μ2 (160–435) = target: T4, AP2 μ2 (160–435) (human, UniProt Q96CW1 160-435)
T4 sequence: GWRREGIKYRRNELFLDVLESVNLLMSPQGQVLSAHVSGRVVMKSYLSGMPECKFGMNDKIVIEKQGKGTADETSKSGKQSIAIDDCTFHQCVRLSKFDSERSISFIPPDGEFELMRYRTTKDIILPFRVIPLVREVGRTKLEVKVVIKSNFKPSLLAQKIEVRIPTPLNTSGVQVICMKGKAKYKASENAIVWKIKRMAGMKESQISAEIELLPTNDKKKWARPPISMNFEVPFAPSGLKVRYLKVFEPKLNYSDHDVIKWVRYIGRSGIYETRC

[…]2 ATG8 (2–115) [1] = target: T5, […]2 ATG8 (2–115) (human, UniProt P60520 2-115)
MAP1LC3C ATG8 (2–125) = MAP1LC3C ATG8 (2–125) (human, UniProt Q9BXW4 2-125)
MAP1LC3B ATG8 (2–119) [2] = target: T6, MAP1LC3B ATG8 (2–119) (human, UniProt Q9GZQ8 2-119)
[…]2 ATG8 (2–115) [3] = target: T5, […]2 ATG8 (2–115); remark: listed apart in the source
MAP1LC3B ATG8 (2–119) [4] = target: T6, MAP1LC3B ATG8 (2–119); remark: listed apart in the source
SCRIB PDZ1 (718–814) = SCRIB PDZ1 (718–814) (human, UniProt Q14160 718-814)
SNTA1 PDZ (84–171) = target: T7, SNTA1 PDZ (84–171) (human, UniProt Q13424 84-171)
T7 sequence: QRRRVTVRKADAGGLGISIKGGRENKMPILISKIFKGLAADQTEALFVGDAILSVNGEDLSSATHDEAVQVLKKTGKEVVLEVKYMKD

TAX1BP3 PDZ (7–124) = target: T8, TAX1BP3 PDZ (7–124) (human, UniProt O14907 7-124)
T8 sequence: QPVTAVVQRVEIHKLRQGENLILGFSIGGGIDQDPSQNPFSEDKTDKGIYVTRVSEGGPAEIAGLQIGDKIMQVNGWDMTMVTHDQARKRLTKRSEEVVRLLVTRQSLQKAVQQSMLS

MAGI1 PDZ1 (1–106) = MAGI1 PDZ1 (1–106) (human, UniProt Q96QZ7 1-106)
LYN SH2 (106–213) = LYN SH2 (106–213) (human, UniProt P07948 106-213)
[5] = target: B1
[6] = target: B5

T5 sequence (P60520 2-115): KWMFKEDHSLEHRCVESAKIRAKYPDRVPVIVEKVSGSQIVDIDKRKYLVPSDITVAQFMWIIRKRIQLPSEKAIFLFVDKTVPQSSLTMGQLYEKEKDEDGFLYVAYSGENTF
TLN2 PTB (309–401), sequence (Q9Y4G6 309-401): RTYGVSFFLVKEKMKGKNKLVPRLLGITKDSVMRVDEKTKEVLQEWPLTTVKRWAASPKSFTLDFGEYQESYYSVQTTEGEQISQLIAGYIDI
MAGI1 PDZ1 (1–106), sequence (Q96QZ7 1-106): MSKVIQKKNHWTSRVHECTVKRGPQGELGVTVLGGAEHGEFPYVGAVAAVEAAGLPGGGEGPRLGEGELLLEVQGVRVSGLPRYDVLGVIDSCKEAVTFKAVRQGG
MAP1LC3C ATG8 (2–125), sequence (Q9BXW4 2-125): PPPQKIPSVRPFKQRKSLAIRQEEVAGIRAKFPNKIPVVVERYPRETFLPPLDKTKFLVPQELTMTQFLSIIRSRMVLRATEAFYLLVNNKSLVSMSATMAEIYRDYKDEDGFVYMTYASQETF
SCRIB PDZ1 (718–814), sequence (Q14160 718-814): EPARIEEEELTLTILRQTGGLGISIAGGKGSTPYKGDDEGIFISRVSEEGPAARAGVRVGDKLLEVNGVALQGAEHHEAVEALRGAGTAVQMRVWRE

B1
Kd (TLN2 PTB (309–401)): > 100 µM | Kd (FRS2 PTB (8–136)): > 100 µM | Kd (DOK1 PTB (151–256)): > 100 µM | Kd (IRS1 PTB (157–267)): > 100 µM

B2: FITC-labeled ATG9A(4–14) probe peptide (peptide)
peptide: {FITC}-FDTEYQRLEAS-NH2
Kd (AP2 μ2 (160–435)): 1640 nM

B3: FITC-labeled SQSTM1(335–344) probe peptide (peptide)
peptide: {FITC}-DDDWTHLSSK-NH2
Kd ([…]2 ATG8 (2–115) [1]): 11 µM | Kd (MAP1LC3C ATG8 (2–125)): 330 nM | Kd (MAP1LC3B ATG8 (2–119) [2]): 1900 nM

B4: FITC-labeled ACE2(775–790) peptide, pTyr781 (peptide)
peptide: {FITC}-RSGENP[pY]ASIDISKGE-NH2
Kd ([…]2 ATG8 (2–115) [3]): > 100 µM | Kd (MAP1LC3B ATG8 (2–119) [4]): > 100 µM

B5
Kd (SCRIB PDZ1 (718–814)): > 100 µM | Kd (SNTA1 PDZ (84–171)): > 100 µM | Kd (TAX1BP3 PDZ (7–124)): > 100 µM | Kd (MAGI1 PDZ1 (1–106)): > 100 µM

B6: FITC-labeled ACE2(775–790) peptide, pSer783 (peptide)
peptide: {FITC}-RSGENPYA[pS]IDISKGE-NH2
Kd (LYN SH2 (106–213)): > 100 µM | Kd ([…]2 ATG8 (2–115) [3]): > 100 µM | Kd (MAP1LC3B ATG8 (2–119) [4]): > 100 µM

B7: TLN1 PTB (442–770) (domain or fragment)
chain: GVSFFLVKEKMKGKNKLVPRLLGITKECVMRVDEKTKEVIQEWNLTNIKRWAASPKSFTLDFGDYQDGYYSVQTTEGEQIAQLIAGYIDIILK
Kd [5]: > 100 µM

B8: Mouse SNX17 FERM (109–388) (domain or fragment)
chain: TQQVPTEEVSLEVLLSNGQKVLVTVLTSDQTEDVLEAVAAKLDLPDDLIGYFSLFLVREKEDGAFSFVRKLQEFELPYVSVTSLRSQEYKIVLRKSYWDSAYDDDVMENRVGLNLLYAQTVSDIEHGWILVTKEQHRQLKSLQEKVSKKEFLRLAQTLRHYGYLRFDACVADFPEKDCPVVVSAGNSELSLQLRLPGQQLREGSFRVTRMRCWRVTSSVPLPSGGTSSPSRGRGEVRLELAFEYLMSKDRLQWVTITSPQAIMMSICLQSMVDELMVKKS
Kd [5]: ~100 µM

B9: FITC-labeled ACE2(775–790) peptide, unphosphorylated (peptide)
peptide: {FITC}-RSGENPYASIDISKGE-NH2
Kd (LYN SH2 (106–213)): > 100 µM | Kd ([…]2 ATG8 (2–115) [3]): > 100 µM | Kd (MAP1LC3B ATG8 (2–119) [4]): > 100 µM

B10: NHERF3 PDZ2 (132–224) (domain or fragment)
chain: QPRLCYLVKEGGSYGFSLKTVQGKKGVYMTDITPQGVAMRAGVLADDHLIEVNGENVEDASHEEVVEKVKKSGSRVMFLLVDKETDKRHVEQK
Kd [6]: > 100 µM
